# Reference: publication PMC3787745, “Yeast Mnn9 is both a priming glycosyltransferase and an allosteric activator of mannan biosynthesis” (Open Biology, 2013)
# B1: ScMnn9 (Saccharomyces cerevisiae S288C) (protein)
# chain: EGHIAHYDLNKLHSTSEAAVNKEHILILTPMQTFHQQYWDNLLQLNYPRELIELGFITPRTATGDLALKKLENAIKKVQTDKKTQRFSKITILRQNSQSFDKLMEKERHALDVQKERRAAMALARNELLFSTIGPHTSWVLWLDADIIETPPSLIQDMTKHNKAILAANIYQRFYDEEKKQPSIRPYDFNNWQESDTGLEIASQMGDDEIIVEGYAEIATYRPLMAHFYDANGVPGEEMALDGVGGGCTLVKAEVHRDGAMFPNFPFYHLIETEGFAKMAKRLNYDVFGLPNYLVYHIEEENH
# notes: glycosyltransferase domain 93-395, lacking first 92 residues; N-terminal MBP-His6-TEV tag cleaved; E. coli BL21(DE3) pLysS
# How the values were obtained:
# [1] = substrate: Cc1cc(=O)oc2cc(O[C@H]3O[C@H](CO)[C@@H](O)[C@H](O)[C@@H]3O)ccc12; test: coupled fluorimetric assay with Aman6 mannosidase (4-MU release); format: biochemical, Saccharomyces cerevisiae; conditions: acceptor varied 0-10 mM, 1.2 mM GDP-Man, 10 mM MnCl2, 20 mM HEPES pH 7.5, 500 nM enzyme
# [2] = substrate: Nc1nc2c(ncn2[C@@H]2O[C@H](COP(=O)(O)OP(=O)(O)O[C@H]3O[C@H](CO)[C@@H](O)[C@H](O)[C@@H]3O)[C@@H](O)[C@H]2O)c(=O)[nH]1; test: as above; format: biochemical, Saccharomyces cerevisiae; conditions: donor varied 0-1.2 mM, 10 mM 4MU-Man, 10 mM MnCl2, 20 mM HEPES pH 7.5, 500 nM enzyme
protein,measurement,setting,value
B1,Km,[1],6.5 (±0.3) mM
same,kcat,[1],0.0033 s⁻¹
same,Km,[2],0.5 (± 0.2) mM
same,kcat,[2],0.0633 s⁻¹
